For six substances, EC50 results are on record in US20110195090A1.

One experiment concerns the target Bal gp120 (HIV-1 isolate Bal). In words: ELISA, bal gp120 coated, scFv-Fc.
Regarding b12 A52P/G53Y scFv-Fc (Fc fusion), the EC50 was found to be 0.0293 µM.

In the case of b12 G53Y scFv-Fc (Fc fusion), the EC50 was > 1 µM. Still for that read-out and setting: then mature b12 scFv-Fc (Fc fusion), with 0.0004 µM.

The next experiment has as its target Bal gp120 (HIV-1 isolate Bal). Description: ELISA, bal gp120 coated, scFv. (In general: An ELISA detects its analyte on a solid surface through an enzyme-linked reagent.)
With mature scFv b12, the EC50 is 0.0013 µM. The same measure, in the same setting: the figure for scFv b12 germline mutant A52P/G53Y is 0.0873 µM; for scFv b12 germline mutant G53Y it is > 1 µM.

What is called EC50 is the concentration needed to bring the measured effect to its halfway point. Read a low EC50 as an effect from little substance.
